Experimental data reported in patent US20080113421A1, “Stabilizing proteins against denaturation and inactivation by charged detergents using chemical modifications, including modifications that increase net charge” (President and Fellows of Harvard College, priority 2006, published 2008).

Experiment: Refolding of SDS-denatured protein by dilution or removal of SDS, monitored by DNSA fluorescence
Format: physicochemical
Protocol: Monitoring refolding of BCA and BCA-Ac18 was performed as follows. The proteins (10 micomolar) were denatured in 10 mM SDS for 24 h. […] Refolding was initiated by dilution of an aliquot of the denatured sample to a final concentration of protein of 200 nM, with varying concentrations of SDS in the buffer. Immediately prior to the measurement, an aliquot of renaturing protein was mixed with an equal aliquot of DNSA. The rate constants for renaturation were determined by fitting the data to FU=FUmax(1-e^−kt)+FUmin. The refolding experiments at 37° C. were performed similarly.
The kinetics of refolding were determined as follows. The rates of refolding of BCA and BCA-Ac18 from the fully denatured states (in 10 mM SDS) were measured by dilution of the solutions into buffers containing concentrations of SDS from 0.1 to 2 mM, using the fluorescence of DNSA as a marker for the appearance of the folded state. […] As in denaturation studies, an aliquot of solution of the protein and SDS was mixed with an equal aliquot of solution of DNSA with the same amount of SDS immediately prior to the measurement to eliminate the possibility of DNSA influencing refolding kinetics. The buffer also contained 100 micromolar ZnSO4 to ensure that the folded protein could incorporate a Zn(II) cofactor.
The raw data emphasize the decrease in the yield of folded protein with increasing concentration of SDS. […] The half-lives (t1/2) for renaturation were determined, where possible, by fitting the data to FU=FUmax(1-exp(−t/t1/2))+FUmin; the fits are shown (solid lines). The tables provide data for refolding in 0.1 and 0.4 mM SDS as well as for concentrations on the graphs for comparison. […] The error bars represent the difference between the average and the largest and smallest values measured from at least three replicate measurements.

bovine carbonic anhydrase II [BCA]
concentration of SDS at which no refolded protein was observed (dilution from 10 mM SDS): ≥ 800 µM | range of SDS concentrations in which protein neither refolds nor unfolds at an observable rate (window) (time scales of a month): 0.8 to 2 mM | refolding rate (given as time) after denaturation with SDS (upon complete removal of the SDS): 11 ± 1 min
